Here are results for 70 sequences from the domain aggregation screens of Martell et al. (2025).

The series is described as follows: soluble fraction after stress (log2 fold change); higher = more stays soluble; pooled small domains, quantitative proteomics. As to conditions: stress: 75 degC.
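Also: 20 min heating vs room temperature control held 20 min.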

“HMDIDLGAVEEQAVKGSGPGGQKMNKTSSGVLLRYRLGEELVLVKWTRERQHSLNRFLALRELVDEIEAR”: the “soluble fraction (log2)” value was determined as 0.976.

Regarding “HMDIFFEKIFNILIGYNQNQENLISEKSILNFHLSHKSNSNFEYIPDEKTPKYIWKYLSNYNLLE”, the “soluble fraction (log2)” value was -0.439.

Consider “HMDIFLPDVKGYDLIPSFRRHLPDIDVIAMTGYNTRALESAVRQQDVLFYMIKPFEASQLKEILEHLVK”, for which the “soluble fraction (log2)” value is -0.16.

“HMDIKEIIKNRRIELGLTLKEVATAVGVSEGTVSRWESGNITNMKRNKIAALAKTLQIPPTTI”: the “soluble fraction (log2)” value was -0.618.

Take “HMDIKKHISATLKREMEKRGLNFMEFSTELGIPRTTLQGYLKGTSSPQADSLEELADKLGISPAELVSG”: the “soluble fraction (log2)” value was -0.0134.

On to “HMDIMLLLYKNIKKRRLEIGMSQEELAQKTGYTSRSSIAKIEKGEVDLQLSKIKLFANALRVSQSELMG”, for which the “soluble fraction (log2)” value was -3.49.

Take “HMDIMTVGERVKKLAEKQGISLRELAKKAELSYNTVYSITRRGSERVAPDTISRLANALGVNVNELT”: the “soluble fraction (log2)” value was -0.263.

Consider “HMDINEIILKVASEKKTFKTSDVLEALDNNYTKQHVSALISAMVKKGILVKAGSTAKSTYALPENASLL”, for which the “soluble fraction (log2)” value is -1.26.

For the sequence “HMDINIETLNYYVGKAKIPLSELRISVKNIDLFLSGEKQPTFNQLSSIAKKLNIPTGLLLLDESIEV”, the “soluble fraction (log2)” value was -3.

For the sequence “HMDIPGITAVKPQAAFYMFPKIDVKKFNIVNDEKFALDLLQDKKILIVQGSGFNWKQPDHFRVV”, the “soluble fraction (log2)” value was determined as 0.177.

Turning to “HMDIRVAHVDDDMSFGEAFAQARSQVGPGGVFEWHGKLYGTYTAEEWASMSPAERSQYQQAVFN”, the “soluble fraction (log2)” value is -0.133.

With “HMDIVLPFSFAKRHGVVLSERQGETELLYLKGLPVRVLAEARRVLRQEFTVRQVEQAVFDKALSESYQN”, the “soluble fraction (log2)” value is -0.957.

With “HMDIYLDDINRKILHLLSQGVKTKSLRDYIDLSMSAIEKRKKHLKDLFLIEDGKDETLLSEARKKGF”, the “soluble fraction (log2)” value is -1.19.

“HMDKAGWLPARVRLADYPALKQLAWQVQGVDELTPREALGIYERNWRHLDEAALLPRERNLIDALRLAFG”: the “soluble fraction (log2)” value was -0.72.

As for “HMDKEQVTFIFRDIDIALRSLDYPIKDIKNTLNIIKSEFSNSKSTELNEQKINFENILKEAISILENND”, the “soluble fraction (log2)” value was -0.855.

As to “HMDKFKDVGARIREARKVQKLSQADLAERLQISTSHMSDIENGKKNIGLDIFMRLTEALQVSADWLL”, the “soluble fraction (log2)” value is -0.437.

For the sequence “HMDKFTYVVKKEDEQYQIKDILRHNFTFSSRLRKKLKQNNSIFLNGAETVGWATPKEGDIISVRLP”, the “soluble fraction (log2)” value was -0.883.

As to “HMDKKEFGKRLKNLRIRNKMSQQAMADSLGYTSRSTINKIEEGINEMSYDKIVRLMELYGLSRPDLGLEPI”, the “soluble fraction (log2)” value was -0.439.

As to “HMDKKTMFNEALAKLVSYATAHDNLITMEDVKSFFNGLIDDDSQYKLIYDYLSINKIEIKGFT”, the “soluble fraction (log2)” value was -0.465.

Consider “HMDKLEKRILDYLLQKSAIDGSTILKISHREMAMDLGTAREVVTRILKKLETGGFVRQGENYLEILK”, for which the “soluble fraction (log2)” value is -0.518.

In the case of “HMDKPIFTLRENEVLYWASMGKTYAEIATIVGISVRTVKFHMGNVVSKLGVSNARQAIRLGVELDLITPMQ”, the “soluble fraction (log2)” value was -2.03.

Consider “HMDKSFYETFEKIGHGDFDKGLNHVWQHANDGNGTATLLLSKLFLEFGDLDNFEKYLNISAEQSNPVAMKI”, for which the “soluble fraction (log2)” value is -0.357.

On to “HMDKSNEVLMNHYRKQEINQAKKRLEEEKMSIIQVLQLTNKEVITTDELLEALYISKEQLLDEIINTTQ”, for which the “soluble fraction (log2)” value is -0.354.

In the case of “HMDKSPVLQLNRDVPAGQQISADDFRTVEIGADGAFRSVPSSDLNAMVGSYAKVRLIAGTLLAREALQSG”, the “soluble fraction (log2)” value was determined as 0.0261.

Consider “HMDKSRPVLRVGDSGDWVSKLQTALLEFGYRVAVDGVFGEHTKSAVVHFQNGRRLIADGVVGNLTWDALL”, for which the “soluble fraction (log2)” value is -2.4.

For “HMDKWFPVSSDHKVQVGDYLRTADGLVKVEATHNEYGTFYGKIITAIHDDVVKGETYEYRIDDVQVLA”, the “soluble fraction (log2)” value was -0.00685.

With “HMDLAPLQTVDIAINYAKAAELAAILKSSEGGILSDRGGVTVDERTNTLLIRDTLESIDEARKTI”, the “soluble fraction (log2)” value is 0.224.

With “HMDLATQHAAKVNAAILAARRFEREGSWRQVAAKYSEALQLMPGNEQASRGYQQAMAMLDERD”, the “soluble fraction (log2)” value was -0.0717.

As to “HMDLDSGVAVLRTLMSQHNLQTDDFQNEIGGKSMVSMILNGTRKLSKNHIQALSGRFNLSPALFF”, the “soluble fraction (log2)” value is -0.819.

As for “HMDLEELSNKMNNVFESLSSDLRDIIIMSDIEGLSYEEISHKINIPIGTVRSRLHRARDLMVRVIKEN”, the “soluble fraction (log2)” value is -0.517.

Take “HMDLGEQIIEKLRAAGGFLAITDKSPAEEIYELFATSKKNYKKAVGGLYKKGLLVIEDDGIRLTPAGR”: the “soluble fraction (log2)” value was -0.503.

Regarding “HMDLHERISSVLLGTGKSNDELAQILGVNKNTISAYKNKHGDLKGIVLEGIVKHFDINPVWLLTGSGTR”, the “soluble fraction (log2)” value was -0.577.

As for “HMDLKSLEFAIVENVQRHDLNPLEEAQGYKRLIDEFSYDQDKVSKFIGKSRSYITNSLRLLNLPLEVLEF”, the “soluble fraction (log2)” value was 0.125.

In the case of “HMDLKTNSQLINELEKKIKRPFDREIKNYLNKNLSTDRMISNNEIDKIILFYSGNNEIPNIEKISLILNDN”, the “soluble fraction (log2)” value is -0.0499.

In the case of “HMDLPATVPNLEGLTEVTARNKLTVAGLSLGEVKEVESDKEKGTVVGQSIAYGKRVTKGTKVDIEISSGK”, the “soluble fraction (log2)” value is 0.194.

With “HMDLPDTLSMPNALKVLEDNGFPTSKAKLYKMTSQEQIPFMKYGNKLVFSRKALIEWAHKQLV”, the “soluble fraction (log2)” value was -1.94.

Consider “HMDLPREKRIEIGLTYIYGIGLKTSQKILAATGIDPNTRVKDLDETTVSKLREYIDHNYRVEGELRS”, for which the “soluble fraction (log2)” value is -1.32.

As to “HMDLSLQTFNELKTELTNNKITIDQFSEKINEFDITSDIFEISRELFLDDTLSLEDYLVVIENVLIN”, the “soluble fraction (log2)” value was -0.327.

Regarding “HMDLSQTVQAKALARVNVREGAGTHFKSLGKLKKGELLPVFRVGNSWASIWWKGRVAYVHTDYLRFESA”, the “soluble fraction (log2)” value is -1.98.

“HMDLTKLFDHDSEYGKSYVFGKITDEMIARAEQTLGYRMPASYIELLKVQNGGMISDELDESWLTTIYGIG”: the “soluble fraction (log2)” value was -0.359.

With “HMDMAYEVVKAFHDLQDYKDVKGGKVYHHYDVGDTYPRQGLDPAPDETRIEELLSSGNAQGVPLIAEV”, the “soluble fraction (log2)” value was 0.112.

For “HMDMNVQNYRGLSLDRAKKLISDLGLKYEVVGTGDSVVKQVPSSGSRMSKENGRIILYTENVEDA”, the “soluble fraction (log2)” value was -0.0826.

Take “HMDMPLIGTAIRGWGIISPAQQETLIKMSILTVEDLAAINDEGIKRIGMGGLDLKNKAKAWLLQLK”: the “soluble fraction (log2)” value is -2.2.

Consider “HMDMRLADLIGRDGITITFMRPSGKVEIDGEIYDAVSDVGLIDKNEEVEVIKFENAQLVVTKKNKN”, for which the “soluble fraction (log2)” value was determined as 0.102.

Turning to “HMDMSVDQFNQGIRGSELYQQFIHGRGLQQPDGKTREWTDADRNAWRRTLEASGVRIPDGMKIDNAGNLNE”, the “soluble fraction (log2)” value came to 0.375.

Regarding “HMDNEIIEEEKITTLMITHNMRDAIKYGNRLIMLNEGRVIFDISGEEKKNLTVQELLEKFEK”, the “soluble fraction (log2)” value came out at 0.242.

Regarding “HMDNEIMYPIQINGKVRAELFVSTERAMDKQYVLEQAKANEKIQGYLEGNRLVKEIFVPKRIVNLVIAP”, the “soluble fraction (log2)” value is -0.576.

“HMDNIEIGNRIREIRIKKNISVFELAYRTKTSQSHIYQIEGGSQNMSIELLFKIADTLETDPNTILGV”: the “soluble fraction (log2)” value is -3.97.

On to “HMDNIPAHIKAKIINYVNRNYPGAIIKDIERKSNGRYEAEIVYNNREYDLLFDAQGNFISASLDDK”, for which the “soluble fraction (log2)” value is -0.0583.

For the sequence “HMDNNFIQSLYPIAIGISKNQLDPWDLINGWVEYYLKNKEKYINHPNLKAVAVLKMKGLLIDHFRKS”, the “soluble fraction (log2)” value is -3.55.

In the case of “HMDNPKGNLQEAVQAKGNEPIEYRVLNVDGPDHAREFKIAVFIGGKRKGTGVGNSKKKAEEIAAEKAFKRM”, the “soluble fraction (log2)” value is 0.109.

With “HMDNPVPVIITDQNFQPQLWKNVGVPTDTLFHELSAANQRKLENLMKTMIQTPLTDNGKISGYAFYSK”, the “soluble fraction (log2)” value was -0.00686.

In the case of “HMDNREKLRQEFLENLKELQEQNDIPQQEIDRVILDYDGVAEFLEDEGALKRYGGQLVDMTAYRAGAIPS”, the “soluble fraction (log2)” value is 0.0771.

Consider “HMDNRLFKMLYYLLDKERATAPELAAEFEVSTRTIYRDVEALSSAGIPIYAEPGRNGGIYLLQD”, for which the “soluble fraction (log2)” value was -2.3.

“HMDNTSNVEKTLRFIRQRGKVSRKEVETLLGSSKFPAISALNELLAENKIVKTGSGPAVRYSVS”: the “soluble fraction (log2)” value is -0.353.

“HMDNVINDGMQVRFTGNVDINGTPLKIYDRIYTAEGISDDTVVLMLGNDVYARVYLSDVVPAD”: the “soluble fraction (log2)” value was -0.975.

As to “HMDNWLSGLAVEADRMILTQPGEVFDRLSRAFEATLIRRALASTGGRRIEAAHLLGIGRNTITRKIQDLGL”, the “soluble fraction (log2)” value is -2.62.

With “HMDPDARQDAEVWLLDFLSAGPRTAQEIFTAARVEGHTRVTVKRAKATAGIQSVKQDFDGPWVWVLPGSG”, the “soluble fraction (log2)” value is -0.455.

Consider “HMDPFAYEVKVTDLAAGSSEIRTVYTEQGSFNIPSGMSGNLKIQVRSASMYDEVEPSDWYTIGEEDIN”, for which the “soluble fraction (log2)” value came to 0.0347.

Take “HMDPLASLTPREREVLSLMAQGLSNLAVAERLVVSAGAVEKHISSIFTKLDLAPSEHEHRRVLAVLRYVAG”: the “soluble fraction (log2)” value was -2.86.

As for “HMDPPISNDARNAINAKLMKFSELHPNEMKKLVEAYKKEFKVSKISPITLARQGEFLSHAISKIDDT”, the “soluble fraction (log2)” value was -0.0671.

As for “HMDPQDGTVKFFNGARGFGFITPDGGGADVFVHVSAVERAGLTQLVEGQRVNFQTLPDTKGKGPKAVNLKV”, the “soluble fraction (log2)” value was found to be 0.106.

On to “HMDPSDQLYTVPPSAEGLRLDLFLVQHVPHMTRALATQLTGAGQVRVNGRRAKKGDRLPSGAQVRLEQAP”, for which the “soluble fraction (log2)” value is -0.85.

Regarding “HMDPSHGESRENLDIMRIIDETHLEYPSWGYRKMTDHLRANHGYTINRKRVRRLMRLMDIIALFPG”, the “soluble fraction (log2)” value was -1.33.

“HMDPSVTGLLTRLGISPQTAQELAGQYEEPYILEKIAIVEAHPEYVKNAAGFVITALQEDWKD”: the “soluble fraction (log2)” value was -0.591.

As for “HMDPTHDMHFLVKDQVTGQPLPNMPYRLQLDNGQTLTGRTDALGMTEKISGHSPHIASIEVPY”, the “soluble fraction (log2)” value is 0.117.

On to “HMDPVILDINSVKALLGISNKADFMAELSRLVVTEGDKKMIIPLAKEVGIDNVAVYKRNEIENISNYK”, for which the “soluble fraction (log2)” value was -0.129.

On to “HMDQAEDVLSIPVDALMRGNQVYIKDDTVTEQQGPIPAGFKAVEVETGLISDSYVEIKSGLSEGDTVYVAE”, for which the “soluble fraction (log2)” value came to 0.129.

In the case of “HMDQESFGYFHVKYADVKQVADLVQKLNIPAVTWADERTRRLVALGSPATLQRISQVLNMVDL”, the “soluble fraction (log2)” value was -0.781.

Turning to “HMDQHPYGEDSFRGDNPPAGFDIKGNEDSMKFHEPSSPWYGRTIAEVWFRSAAAAEAAGFVNAV”, the “soluble fraction (log2)” value is -0.0403.
